Measured values from patent publication US10947270B2, “Targeted prodrug cytosine deaminase fusion carrier and application thereof” (National Yang-Ming University, priority 2015, dated 2021).
Values joined by “and” are separate entries in the source; they are usually repeats but may differ in a detail not shown here. Equal entries are not always repeated.

Legend:
[1] = system: HUVEC, U87MG and MCF-7 cells; test: MTT cytotoxicity assay of yCD series, statements for all three cells; assay type: cell-based, human; conditions: 5-FC alone
Description: The cell viability was determined by MTT assay. The seeded HUVEC cells shown in FIG. 7A, the seeded U87MG cells shown in FIG. 7B and the 96 wells of seeded MCF-7 cells shown in FIG. 7C are respectively added with 500 nM RGD4C-yCD, yCD, RGD4C-yCD/UPRT and yCD/UPRT recombinant protein, after removing the recombinant protein not bound with the cells and washing the cells, add 5-FC with different concentrations and observe the cell killing effect. Cells of the control groups were only incubated with different concentrations of 5-FU or 5-FC without protein treatment.
In this experiment, the MTT assay is applied to measure cytotoxicity induced by RGD4C-yCD/5-FC and RGD4C-yCD/UPRT/5-FC of the targeted prodrug enzyme fusion protein. In 96-well plate of seeded cells is respectively added with recombinant proteins such as 500 nM RGD4C-yCD, yCD, RGD4C-yCD/UPRT and yCD/UPRT, and co-cultured at 37° C. for 2 hours. The recombinant proteins not bound with cells are discarded. The cells were washed, and then were treated with different concentrations of 5-FC for observing the effect of cytotoxicity. On the other hand, the cells only treated with different concentrations of 5-FC and 5-FU separately as the control group.

[2] = system: U87MG, HUVEC and MCF-7 cells; test: MTT cytotoxic test of EcCD series, statements for several cells; assay type: cell-based, human; conditions: 5-FC alone
Description: Relative cell viability was measured by MTT assay. The 50 nM EcCD series fusion protein is applied to U87MG, HUVEC and MCF-7 cells at 37° C. for 2 hours, after washing the unbound protein with PBS.

[3] = molecular target: αvβ3 integrin (Homo sapiens, UniProt P05106+P06756); test: ELISA binding of EcCD series fusion protein and αvβ3 integrin
Excerpt: FIGS. 13A-13B show the binding activity and specificity test of EcCD fusion protein and αvβ3 integrin receptor. […] (***compared with untreated RGDfv group, P value<0.001, indicating a statistically significant difference)
To confirm the binding ability of RGD4C peptide and αvβ3 integrin, the affinity of the protein and αvβ3 integrin is confirmed by ELISA method. […] This experiment confirms that RGD4C-EcCD_WT and RGD4C-EcCD_D314A have the binding activity of αvβ3 integrin, and this binding has the specificity of RGD4C peptide αvβ3 integrin.

[4] = Enzyme kinetic analysis of EcCD series fusion proteins, substrate cytosine; assay type: biochemical
Excerpt: FIGS. 11A-11D show the activity and kinetics analysis of EcCD series fusion protein enzymes, and the EcCD series proteins are combined with 5-FC at different concentrations for reaction. Respectively calculate the 5-FU formation reaction rate shown in FIG. 11A, 5-FC consumption reaction rate shown in FIG. 10B, uracil formation reaction rate shown in FIG. 10C and cytosine consumption reaction rate shown in FIG. 10D, substitute Michaelis-Menten formula, and calculate the base mass (Kcat) and Km value catalyzed by each mol enzyme in unit time. […]

[5] = system: U87MG, HUVEC and MCF-7 cells; test: Immunofluorescence of binding and distribution of EcCD fusion proteins in cells; assay type: cell-based, human; conditions: 37° C., 2 hours
Description: FIGS. 15A-15C show the binding and distribution of EcCD fusion proteins in U87MG, HUVEC and MCF-7 cell strain. The immunofluorescence staining is used to observe and experiment the EcCD fusion protein, which are respectively acted with U87MG cells in FIG. 15A, HUVEC cells in FIG. 15B and MCF-7 cells in FIG. 15C for 2 hours at 37° C., then fixed with 2% para-formadehyde, the fixed cells are first permeabilized with 0.1% Triton X-100 for 10 minutes, after that, cultured with 1% BSA blocking (dissolved in PBS containing Ca^2+, Mg^2+) for 1 hour at room temperature, then add a 1st antibody (Rabbit anti-His^6tag, Mouse anti-human CD51/61αvβ3 integrin), and then add a 2nd antibody (Anti-rabbit IgG-CF640R, Anti-mouse IgG-Alexa488), the protein distribution is observed by conjugated fluorescence microscope. (Green signal: αvβ3 integrin; red signal: anti-His^6tag; blue signal: Hoechst 33342 cell nucleus stain) (Scale bars: 20 μm)
Immunofluorescence is used to observe the distribution of the protein bound with cell in the cell. U87MG, HUVEC and MCF-7 cells act with culture medium containing EcCD_WT, RGD4C-EcCD_WT, EcCD_D314A and RGD4C-EcCD_D314A proteins at 37° C. for 2 hours, stain the cell, and observe protein distribution by the conjugated fluorescence microscopy.

[6] = system: U87MG, HUVEC cells; test: RGDfv peptide competition of EcCD fusion protein binding to cells; assay type: cell-based, human; conditions: RGDfv peptide at 10-fold relative concentration
Description: FIGS. 14A-14E show the binding activity and specificity test of EcCD fusion protein and U87MG, HUVEC and MCF-7 cell strain. […] (***compared to the untreated RGDfv group, P value<0.001, indicating a statistically significant difference)
It is confirmed from the above experimental results that the EcCD series protein fused to the RGD4C peptide has the binding activity with the expressing αvβ3 integrin cell strain, and the binding has the specificity of the RGD4C peptide and αvβ3 integrin of the cell expression, and also confirmed that the D314A mutation will not affect the binding activity of the RGD4C peptide and αvβ3 integrin.

[7] = Enzyme kinetic analysis of EcCD series fusion proteins, substrate 5-FC; assay type: biochemical
Excerpt: FIGS. 11A-11D show the activity and kinetics analysis of EcCD series fusion protein enzymes, and the EcCD series proteins are combined with 5-FC at different concentrations for reaction. Respectively calculate the 5-FU formation reaction rate shown in FIG. 11A, 5-FC consumption reaction rate shown in FIG. 10B, uracil formation reaction rate shown in FIG. 10C and cytosine consumption reaction rate shown in FIG. 10D, substitute Michaelis-Menten formula, and calculate the base mass (Kcat) and Km value catalyzed by each mol enzyme in unit time.

[8] = Relative substrate selectivity of cytosine deaminase enzyme for 5-FC and cytosine (formula 1); assay type: biochemical; conditions: for [Kcat/Km(5-FC)]/{[Kcat/Km(cytosine)] + [Kcat/Km(5-FC)]}: relative substrate selectivity to 5-FC
Excerpt: Evaluation of the relative substrate selectivity of cytosine deaminase enzyme for 5-FC and Cytosine can be expressed by the following formula 1,
The higher the value, the higher the selectivity of the enzyme to the 5-FC substrate.

[9] = design: species or system nude mice; conditions: mouse, in vivo
Description: ES-2-luc tumor nude mice is intraperitoneally injected with 50 μCi (2.5 μg) ^111In-DTPA-yCD and ^111In-DTPA-RGD4C-yCD for 1, 4 and 24 hours, then organs are collected and their radioactivity is measured to obtain biodistribution, as shown in Table 19 and Table 20. […] In addition to the part accumulated in the tumor, another part of the drug is absorbed back into the blood circulation system by the peritoneal blood vessels. […] The pancreatic radioactivity of the two drugs is observed after 1 hour of injection. The pancreatic radioactivity of ^111In-DTPA-RGD4C-yCD (8.06±0.88% ID/g) is higher than that of ^111In-DTPA-yCD (3.91±0.36% ID/g), it is suspected that tumor cells invade the pancreas.

[10] = system: MCF-7 cells; test: Competitive cell uptake with cRGDfk; assay type: cell-based, human; conditions: cRGDfk 1000-fold molar excess, 4 hours
Description: (§1) The uptake of ^111In-DTPA-yCD is low in the all three cell lines. […] The uptake amount of ^111In-DTPA-RGD4C-yCD by each cell strain is used as a control group, and analyzed by two sample t-test statistical methods, *P-value<0.05, **P-value<0.01, ***P-value<0.001, ****P-value<0.0001.
(§2) ^111In-DTPA-yCD and ^111In-DTPA-RGD4C-yCD (20 μCi/50 pmol/mL) are separately added to the 24-well plate of the seeded cells (2.5×10^5 cells/well) and cultured for 4 hours, and then the radioactivity of the cells and culture medium are separately measured, calculate the uptake amount of the drug by the cells (shown as % AD/10^6 cells).

[11] = system: U87MG cells; test: Competitive cell uptake with cRGDfk; assay type: cell-based, human; conditions: cRGDfk 1000-fold molar excess, 4 hours
Description: as §1, §2

[12] = system: HUVEC cells; test: Competitive cell uptake with cRGDfk; assay type: cell-based, human; conditions: cRGDfk 1000-fold molar excess, 4 hours
Description: as §1, §2

[13] = assay type: physicochemical
Description: The radiochemical purity of ^111In-DTPA-yCD and ^111In-DTPA-RGD4C-yCD are greater than 95% after marking and purification. Both are stored in HEPES buffer liquid (4° C.) for 48 hours, and the radiochemical purity is still higher than 85% (see FIG. 26). Both are placed in fetal bovine serum (37° C.) to simulate their stability in vivo. After 48 hours, the radiochemical purity of both is about 80%. It is shown that radioactive metal indium-111 is stably chelated on DTPA.

[14] = design: species or system nude mice; conditions: mouse, in vivo; remark: listed apart in the source
Description: The arrow is marked as a tumor.
In in-vitro cell experiment, the binding ability of ^111In-DTPA-RGD4C-yCD and the integrin αvβ3 receptor on the cell membrane has been verified. In order to know whether the drug can show its target effect in vivo, integrin αvβ3 is seeded subcutaneously in the right side of nude mice. After the high-expression U87MG tumor cells are grown to 100 mm^3, 60-70 μCi (3-3.5 μg) of ^111In-DTPA-yCD and ^111In-DTPA-RGD4C-yCD are injected directly into the tumor, the images are collected by microSPECT/CT after 1, 4, 24, 48 hours. It can be seen from the image (see FIG. 31) that the drug retention in the ^111In-DTPA-RGD4C-yCD group (orange arrow) is better than that in the ^111In-DTPA-yCD, and the target ligand RGD4C is missing. ^111In-DTPA-yCD enters the systemic blood circulation system within 1 hour and is metabolized by normal organs. From FIG. 31, it can be seen that the kidney is the main metabolic organ of these two drugs. […] After 24-48 hours, the amount of accumulation in the tumor is running out. On the contrary, ^111In-DTPA-RGD4C-yCD is bound with integrin αvβ3 on tumor cells, then the ratio of drug entering the systemic blood circulation is reduced, and the metabolic rate is slow.

[15] = system: ES-2-luc cells; test: Competitive cell uptake with cRGDfk; assay type: cell-based; conditions: cRGDfk 1000-fold molar excess, 4 hours

Chain of αvβ3 integrin (P06756 31-889 limits assumed): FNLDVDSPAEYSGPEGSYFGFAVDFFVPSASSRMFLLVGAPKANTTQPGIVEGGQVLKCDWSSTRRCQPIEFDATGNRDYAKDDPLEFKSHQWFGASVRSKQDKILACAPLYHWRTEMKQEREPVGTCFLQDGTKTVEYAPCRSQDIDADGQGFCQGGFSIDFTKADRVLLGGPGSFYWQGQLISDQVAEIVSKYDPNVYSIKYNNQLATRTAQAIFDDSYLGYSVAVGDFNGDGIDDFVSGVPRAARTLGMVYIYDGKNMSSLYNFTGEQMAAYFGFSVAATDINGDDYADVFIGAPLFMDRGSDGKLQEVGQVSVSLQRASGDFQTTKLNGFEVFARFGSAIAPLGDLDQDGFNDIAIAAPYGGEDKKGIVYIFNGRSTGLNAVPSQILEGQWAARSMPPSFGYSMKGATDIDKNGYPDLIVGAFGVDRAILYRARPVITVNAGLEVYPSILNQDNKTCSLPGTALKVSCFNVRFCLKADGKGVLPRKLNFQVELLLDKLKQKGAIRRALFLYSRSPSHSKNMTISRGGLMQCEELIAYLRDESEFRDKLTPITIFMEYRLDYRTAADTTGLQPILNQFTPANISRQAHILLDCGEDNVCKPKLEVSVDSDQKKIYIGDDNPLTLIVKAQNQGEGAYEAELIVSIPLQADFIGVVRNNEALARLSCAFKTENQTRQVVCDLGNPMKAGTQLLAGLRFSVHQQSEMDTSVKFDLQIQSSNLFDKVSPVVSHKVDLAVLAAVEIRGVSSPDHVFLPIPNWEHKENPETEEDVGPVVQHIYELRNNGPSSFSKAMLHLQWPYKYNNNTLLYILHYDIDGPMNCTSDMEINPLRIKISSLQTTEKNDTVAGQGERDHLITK
Chain of αvβ3 integrin (P06756 891-1048 partner limits assumed): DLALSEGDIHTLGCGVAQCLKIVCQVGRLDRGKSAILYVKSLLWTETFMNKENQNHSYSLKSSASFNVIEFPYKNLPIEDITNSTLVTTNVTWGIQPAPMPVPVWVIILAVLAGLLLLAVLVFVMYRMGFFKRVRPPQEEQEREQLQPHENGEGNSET
Chain of αvβ3 integrin (P05106 27-788): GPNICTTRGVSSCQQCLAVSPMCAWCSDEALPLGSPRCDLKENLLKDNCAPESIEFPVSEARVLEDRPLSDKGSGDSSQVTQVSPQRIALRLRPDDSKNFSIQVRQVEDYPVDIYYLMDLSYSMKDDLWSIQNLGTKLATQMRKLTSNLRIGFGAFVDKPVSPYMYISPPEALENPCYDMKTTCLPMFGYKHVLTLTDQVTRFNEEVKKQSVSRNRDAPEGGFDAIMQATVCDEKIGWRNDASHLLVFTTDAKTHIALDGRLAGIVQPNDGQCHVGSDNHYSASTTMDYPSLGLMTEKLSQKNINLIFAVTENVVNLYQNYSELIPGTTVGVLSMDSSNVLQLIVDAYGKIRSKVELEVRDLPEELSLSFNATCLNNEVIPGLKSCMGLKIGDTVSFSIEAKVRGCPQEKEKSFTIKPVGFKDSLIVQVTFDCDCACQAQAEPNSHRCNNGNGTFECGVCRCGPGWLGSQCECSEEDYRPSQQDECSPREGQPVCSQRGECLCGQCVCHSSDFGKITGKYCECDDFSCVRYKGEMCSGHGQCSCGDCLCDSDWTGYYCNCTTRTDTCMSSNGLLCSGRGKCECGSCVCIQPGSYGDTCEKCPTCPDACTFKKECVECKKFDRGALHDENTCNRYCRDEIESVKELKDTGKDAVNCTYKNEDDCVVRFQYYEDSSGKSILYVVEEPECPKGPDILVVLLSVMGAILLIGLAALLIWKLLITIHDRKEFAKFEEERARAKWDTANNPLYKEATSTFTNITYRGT

Nc1nc(=O)[nH]cc1F [5-FC, 5-fluorocytosine]
cytotoxic ability [1]: not significant cytotoxic ability | survival rate [2]: ~100%

B1: RGD4C-EcCD_D314A: targeted prodrug enzyme fusion protein (SEQ ID NO: 20) (protein)
chain: MGCDCRGDCFCMSNNALQTIINARLPGEEGLWQIHLQDGKISAIDAQSGVMPITENSLDAEQGLVIPPFVEPHIHLDTTQTAGQPNWNQSGTLFEGIERWAERKALLTHDDVKQRAWQTLKWQIANGIQHVRTHVDVSDATLTALKAMLEVKQEVAPWIDLQIVAFPQEGILSYPNGEALLEEALRLRADVVGAIPHFEFTREYGVESLHKTFALAQKYDRLIDVHCDEIDDEQSRFVETVAALAHHEGMGARVTASHTTAMHSYNGAYTSRLFRLLKMSGINFVANPLVNIHLQGRFDTYPKRRGITRVKEMLESGINVCFGHDAVFDPWYPLGTANMLQVLHMGLHVCQLMGYGQINDGLNLITHHSARTLNLQDYGIAAGNSANLIILPAENGFDALRRQVPVRYSVRGGKVIASTQPAQTTVYLEQPEAIDYKRLEHHHHHH
modifications: RGD4C_EcCD_D314A
inhibition of binding capacity by RGDfv peptide ([3]; RGDfv peptide at 10-fold concentration): about 80% | inhibition of binding capacity by RGDfv peptide ([3]; RGDfv peptide at same concentration): about 30% | Kcat ([4]; cytosine consumption): 17.7 ± 1.3 s⁻¹ | Km ([4]; cytosine consumption): 3 mM and 2.9 mM | Kcat/Km lower than that of the corresponding WT protein ([4]; substrate cytosine): about 15.5 times | Kcat ([4]; uracil generation): 21.7 ± 4.8 s⁻¹ | Km ([4]; uracil generation): 3.8 ± 1.7 mM | binding with cells [5]: have the ability of binding with U87MG and HUVEC cells | internalization [5]: will enter the internalization | inhibition of binding by RGDfv peptide competition [6]: about 50% | Kcat ([7]; 5-FC consumption (Table 5)): 38.6 ± 1.0 s⁻¹ and 39.1 ± 1.0 s⁻¹ | Km ([7]; 5-FC consumption (Table 5)): 3.5 ± 0.2 mM | Kcat ([7]; 5-FU generation): 39.4 ± 1.1 s⁻¹ and 38.4 ± 0.8 s⁻¹ | Km ([7]; 5-FU generation): 3.5 mM and 3.4 mM | Kcat/Km higher than that of the corresponding WT protein ([7]; substrate 5-FC): about 2.4 times | relative substrate selectivity to 5-FC higher than the corresponding WT protein [8]: about 13.8 times | [Kcat/Km(5-FC)]/{[Kcat/Km(cytosine)] + [Kcat/Km(5-FC)]} [8]: 0.648 | [Kcat/Km(5-FC)]/{[Kcat/Km(cytosine)] + [Kcat/Km(5-FC)]} ([8]; listed as RGD4C- EcCD_D314A): 0.664

B2: ^111In-DTPA-RGD4C-yCD: indium-111 labeled DTPA-RGD4C-yCD protein (conjugate)
chain: MACDCRGDCFCVTGGMASKWDQKGMDIAYEEAALGYKEGGVPIGGCLINNKDGSVLGRGHNMRFQKGSATLHGEISTLENCGRLEGKVYKDTTLYTTLSPCDMCTGAIIMYGIPRCVVGENVNFKSKGEKYLQTRGHEVVVVDDERCKKIMKQFIDERPQDWFEDIGELEHHHHHH
radioactivity in the peritoneal cavity reduced to (fraction of 1 hour value) [9]: ¼ | radioactivity in tumor higher than that of ^111In-DTPA-yCD [9]: approximately 3 times | decrease of cell uptake by cRGDfk [10]: ~45% | decrease of cell uptake by cRGDfk [11]: ~55% | decrease of cell uptake by cRGDfk [12]: about 65% | radiochemical purity after incubation [13]: about 80% | accumulation in the tumor [14]: considerable drug accumulation in the tumor | decrease of cell uptake by cRGDfk [15]: about 70%
